± gives the uncertainty stated by the source.
Test: self-splicing fitness, log relative to wild type (ln ratio); higher = more splicing; Tetrahymena group I intron in knt gene, E. coli kanamycin selection, DiMSum; sequences stand for … in CUCUCU…GGAGGGAAAAGUUAUCAGGCAUGCACCUGGUAGCUAGUCUUUAAACCAAUAGAUUGCAUCGGUUUAAAAGGCAAGACCGUCAAAUUGCGGGAAAGGGGUCAACAGCCGUUCAGUACCAAGUCUCAGGGGAAACUUUGAGAUGGCCUUGCAAAGGGUAUGGUAAUAAGCUGACGGACAUGGUCCUAACCACGCAGCCAAGUCCUAAGUCAACAGAUCUUCUGUUGAUAUGGAUGCAGUUCACAGACUAAAUGUCGGUCGGGGAAGAUGUAUUCUUCUCAUAAGAUAUAGUCGGACCUCUCCUUAAUGGGAGCUAGCGGAUGAAGUGAUGCAACACUGGAGCCGCUGGGAACUAAUUUGUAUGCGAAAGUAUAUUGAUUAGUUUUGGAGUACUCGUGGUCG
Procedure, shortened: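 Six replicate transformations of E. coli BL21(DE3) with a pET-22b(+) library were grown overnight at 37°C or 30°C. The library randomised all eight P1ex-region intron nucleotides, the intron lying in the knt kanamycin-resistance gene, and plates were LB agar with or without 25 μg/mL kanamycin plus 100 μg/mL carbenicillin, 50 μM IPTG and 0.2% rhamnose. Pooled colonies were amplicon-sequenced on an Illumina HiSeq 2500, and fitness is the DiMSum error-weighted combination of wild-type-normalised replicate fold changes, kanamycin versus none.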

Sequence	self-splicing fitness (ln) (30 °C)	self-splicing fitness (ln) (37 °C)
CCCUAGCAAUAUUACGCCAU	-4.3 ± 0.42	-2.43 ± 0.39
CCCUAGCAAUAUUACGCGUA	-2.29 ± 0.31	-0.911 ± 0.2
CCCUAGCAAUAUUACGCGUC	-3.35 ± 0.14	-3.21 ± 0.23
CCCUAGCAAUAUUACGCUGG	-4.39 ± 0.27	-2.89 ± 0.27
CCCUAGCAAUAUUACGGAAU	-3.36 ± 0.37	-1.82 ± 0.31
CCCUAGCAAUAUUACGGCCU	-2.9 ± 0.21	–
CCCUAGCAAUAUUACGGCGG	-2.6 ± 0.14	-2.42 ± 0.18
CCCUAGCAAUAUUACGGCUG	-2.46 ± 0.28	-1.38 ± 0.3
CCCUAGCAAUAUUACGGUUC	-3.92 ± 0.16	-2.04 ± 0.21
CCCUAGCAAUAUUACGGUUG	-3.3 ± 0.14	-2.04 ± 0.11
CCCUAGCAAUAUUACGUAGU	-3.63 ± 0.18	-2.51 ± 0.17
CCCUAGCAAUAUUACGUGUG	-4.41 ± 0.24	-2.43 ± 0.13
CCCUAGCAAUAUUACGUUAA	-3.42 ± 0.18	-3.16 ± 0.29
CCGAAGCAAUAUUACGAAAC	-3.12 ± 0.31	-2.46 ± 0.37
CCGAAGCAAUAUUACGACGU	-1.03 ± 0.08	0.0423 ± 0.092
CCGAAGCAAUAUUACGAGCU	-3.83 ± 0.27	-2.47 ± 0.19
CCGAAGCAAUAUUACGAGUC	-3.86 ± 0.21	-2.53 ± 0.19
CCGAAGCAAUAUUACGCAAG	-1.83 ± 0.17	-1.12 ± 0.17
CCGAAGCAAUAUUACGCAGG	-2.04 ± 0.12	–
CCGAAGCAAUAUUACGCCAU	-4.11 ± 0.27	-3.25 ± 0.21
CCGAAGCAAUAUUACGCGGG	-3.3 ± 0.19	-2.62 ± 0.24
CCGAAGCAAUAUUACGCUAG	-2.1 ± 0.18	-1.87 ± 0.22
CCGAAGCAAUAUUACGCUAU	–	-2.24 ± 0.25
CCGAAGCAAUAUUACGCUCU	-3.24 ± 0.4	–
CCGAAGCAAUAUUACGCUGU	-3.74 ± 0.32	-2.84 ± 0.4

Sequence	self-splicing fitness (ln) (30 °C)	self-splicing fitness (ln) (37 °C)
CCGAAGCAAUAUUACGGAAU	-3.74 ± 0.19	-3 ± 0.24
CCGAAGCAAUAUUACGGAGG	-4.7 ± 0.31	-2.44 ± 0.21
CCGAAGCAAUAUUACGGCCA	-2.76 ± 0.17	-2.3 ± 0.18
CCGAAGCAAUAUUACGGCUA	-2.89 ± 0.29	-1.64 ± 0.24
CCGAAGCAAUAUUACGGCUG	-1.53 ± 0.092	-0.38 ± 0.11
CCGAAGCAAUAUUACGGGUG	-0.732 ± 0.047	-0.639 ± 0.061
CCGAAGCAAUAUUACGGUAA	-1.62 ± 0.13	-3.15 ± 0.23
CCGAAGCAAUAUUACGGUUA	–	-2.08 ± 0.24
CCGAAGCAAUAUUACGUACC	-3.47 ± 0.16	-2.5 ± 0.21
CCGAAGCAAUAUUACGUAGC	-3 ± 0.33	–
CCGAAGCAAUAUUACGUAUA	–	-2.51 ± 0.41
CCGAAGCAAUAUUACGUCUA	-3.69 ± 0.35	-2.25 ± 0.3
CCGAAGCAAUAUUACGUUGC	-3.51 ± 0.21	-2.66 ± 0.22
CCGCAGCAAUAUUACGAAAA	-3.37 ± 0.21	-2.39 ± 0.16
CCGCAGCAAUAUUACGAACG	-0.44 ± 0.085	0.193 ± 0.1
CCGCAGCAAUAUUACGACCA	-3.34 ± 0.25	-1.95 ± 0.25
CCGCAGCAAUAUUACGAGCU	-2.93 ± 0.27	-3.37 ± 0.28
CCGCAGCAAUAUUACGAUAC	-2.77 ± 0.28	-2.19 ± 0.46
CCGCAGCAAUAUUACGAUCG	0.289 ± 0.083	0.186 ± 0.11
CCGCAGCAAUAUUACGCCUU	-3.2 ± 0.21	-2.08 ± 0.16
CCGCAGCAAUAUUACGCGAU	-3.44 ± 0.14	-3.44 ± 0.21
CCGCAGCAAUAUUACGCGCC	-2.71 ± 0.25	-2.02 ± 0.47
CCGCAGCAAUAUUACGCGGA	-3.03 ± 0.29	-3.11 ± 0.3
CCGCAGCAAUAUUACGCGUG	-2.75 ± 0.15	-2.38 ± 0.17

— the supplement of paper PMC7877785
